This is an account of results in PMC11117068 (2024).

The term koff denotes a measure of how fast the partners let go of each other. The Kd is the constant that tells how readily two partners part at equilibrium. Higher therefore signals lower affinity.

For assay [1], the target named is T1, complement C3b (UniProt P01024 749-1663; P01024 749-1663). Kind of assay: SPR. A general note: In SPR one partner is held on a chip, and binding of the other changes the refractive index at the surface.
The target of assay [2] is T1, complement C3b. The assay is described as follows: SPR. This is another data set of the same source.

T1 sequence (P01024 23-667, chain 1 of 2): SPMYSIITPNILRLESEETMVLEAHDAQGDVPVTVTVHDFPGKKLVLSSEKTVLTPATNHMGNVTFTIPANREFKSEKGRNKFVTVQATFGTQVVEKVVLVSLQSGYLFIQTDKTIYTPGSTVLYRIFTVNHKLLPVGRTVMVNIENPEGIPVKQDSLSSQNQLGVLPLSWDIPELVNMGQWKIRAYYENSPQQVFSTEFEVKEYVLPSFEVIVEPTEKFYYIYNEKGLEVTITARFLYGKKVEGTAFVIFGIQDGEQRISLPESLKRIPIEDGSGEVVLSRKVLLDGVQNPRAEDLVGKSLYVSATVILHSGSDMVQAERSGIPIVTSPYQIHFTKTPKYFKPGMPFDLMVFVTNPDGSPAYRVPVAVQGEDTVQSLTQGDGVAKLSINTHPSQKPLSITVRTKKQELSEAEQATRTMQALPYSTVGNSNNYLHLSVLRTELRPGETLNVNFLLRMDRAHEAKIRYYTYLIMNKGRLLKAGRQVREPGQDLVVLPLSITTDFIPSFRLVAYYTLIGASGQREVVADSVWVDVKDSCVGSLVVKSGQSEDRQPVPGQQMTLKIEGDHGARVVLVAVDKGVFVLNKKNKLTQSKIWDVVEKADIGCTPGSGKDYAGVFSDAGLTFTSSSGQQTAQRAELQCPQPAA
T1 sequence (P01024 749-1663, chain 2 of 2): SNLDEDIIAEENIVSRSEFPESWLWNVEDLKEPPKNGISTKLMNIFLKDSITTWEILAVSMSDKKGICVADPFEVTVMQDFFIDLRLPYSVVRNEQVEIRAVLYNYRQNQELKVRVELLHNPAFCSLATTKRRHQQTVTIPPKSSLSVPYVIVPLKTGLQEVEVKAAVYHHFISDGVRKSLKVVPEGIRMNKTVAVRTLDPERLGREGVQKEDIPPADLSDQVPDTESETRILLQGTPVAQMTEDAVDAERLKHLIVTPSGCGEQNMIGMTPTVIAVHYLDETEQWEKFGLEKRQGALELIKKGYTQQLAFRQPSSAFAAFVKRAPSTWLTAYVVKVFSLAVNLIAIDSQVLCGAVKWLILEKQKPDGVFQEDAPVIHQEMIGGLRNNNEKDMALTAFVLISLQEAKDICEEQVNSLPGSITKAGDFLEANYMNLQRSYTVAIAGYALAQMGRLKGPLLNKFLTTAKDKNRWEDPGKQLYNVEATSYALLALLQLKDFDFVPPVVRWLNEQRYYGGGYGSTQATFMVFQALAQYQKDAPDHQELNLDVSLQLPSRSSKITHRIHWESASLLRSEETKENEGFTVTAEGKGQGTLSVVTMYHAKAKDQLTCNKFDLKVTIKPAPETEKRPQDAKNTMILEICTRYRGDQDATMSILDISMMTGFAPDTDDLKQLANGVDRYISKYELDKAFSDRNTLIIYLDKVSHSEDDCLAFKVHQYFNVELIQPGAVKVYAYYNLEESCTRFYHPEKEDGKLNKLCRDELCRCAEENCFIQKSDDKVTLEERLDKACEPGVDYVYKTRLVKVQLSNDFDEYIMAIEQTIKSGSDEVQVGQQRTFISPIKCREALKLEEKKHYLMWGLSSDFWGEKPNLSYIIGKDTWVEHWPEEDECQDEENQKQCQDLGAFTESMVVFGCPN

B1: serum-derived human factor H (sd-FH) (natural protein)
chain: EDCNELPPRRNTEILTGSWSDQTYPEGTQAIYKCRPGYRSLGNVIMVCRKGEWVALNPLRKCQKRPCGHPGDTPFGTFTLTGGNVFEYGVKAVYTCNEGYQLLGEINYRECDTDGWTNDIPICEVVKCLPVTAPENGKIVSSAMEPDREYHFGQAVRFVCNSGYKIEGDEEMHCSDDGFWSKEKPKCVEISCKSPDVINGSPISQKIIYKENERFQYKCNMGYEYSERGDAVCTESGWRPLPSCEEKSCDNPYIPNGDYSPLRIKHRTGDEITYQCRNGFYPATRGNTAKCTSTGWIPAPRCTLKPCDYPDIKHGGLYHENMRRPYFPVAVGKYYSYYCDEHFETPSGSYWDHIHCTQDGWSPAVPCLRKCYFPYLENGYNQNYGRKFVQGKSIDVACHPGYALPKAQTTVTCMENGWSPTPRCIRVKTCSKSSIDIENGFISESQYTYALKEKAKYQCKLGYVTADGETSGSITCGKDGWSAQPTCIKSCDIPVFMNARTKNDFTWFKLNDTLDYECHDGYESNTGSTTGSIVCGYNGWSDLPICYERECELPKIDVHLVPDRKKDQYKVGEVLKFSCKPGFTIVGPNSVQCYHFGLSPDLPICKEQVQSCGPPPELLNGNVKEKTKEEYGHSEVVEYYCNPRFLMKGPNKIQCVDGEWTTLPVCIVEESTCGDIPELEHGWAQLSSPPYYYGDSVEFNCSESFTMIGHRSITCIHGVWTQLPQCVAIDKLKKCKSSNLIILEEHLKNKKEFDHNSNIRYRCRGKEGWIHTVCINGRWDPEVNCSMAQIQLCPPPPQIPNSHNMTTTLNYRDGEKVSVLCQENYLIQEGEEITCKDGRWQSIPLCVEKIPCSQPPQIEHGTINSSRSSQESYAHGTKLSYTCEGGFRISEENETTCYMGKWSSPPQCEGLPCKSPPEISHGVVAHMSDSYQYGEEVTYKCFEGFGIDGPAIAKCLGEKWSHPPSCIKTDCLSLPSFENAIPMGEKKDVYKAGEQVTYTCATYYKMDGASNVTCINSRWTGRPTCRDTSCVNPPTVQNAYIVSRQMSKYPSGERVRYQCRSPYEMFGDEEVMCLNGNWTEPPQCKDSTGKCGPPPPIDNGDITSFPLSVYAPASSVEYQCQNLYQLEGNKRITCRNGQWSEPPKCLHPCVISREIMENYNIALRWTAKQKLYSRTGESVEFVCKRGYRLSSRSHTLRTTCWDGKLEYPTCAKR
modifications: native N-linked glycans, diantennary and a small number of triantennary sialylated glycans
B1 yielded a koff with complement C3b [1] of 0.0233 s⁻¹. Binding in the assay with complement C3b [2] was put at a Kd of 11.3 nM.
